In the test the target is T1, HIV-1 Nef-SF2, untagged (HIV-1 (SF2), UniProt P03407).
T1 construct: also called Nef (B-clade allele SF2); source: E. coli, purified without N-terminal His tag (anion exchange HiPrep Q FF, gel filtration Superdex 75)
The test can be described thus: SPR. The settings on record: both partners purified.

T1 sequence (P03407 whole entry): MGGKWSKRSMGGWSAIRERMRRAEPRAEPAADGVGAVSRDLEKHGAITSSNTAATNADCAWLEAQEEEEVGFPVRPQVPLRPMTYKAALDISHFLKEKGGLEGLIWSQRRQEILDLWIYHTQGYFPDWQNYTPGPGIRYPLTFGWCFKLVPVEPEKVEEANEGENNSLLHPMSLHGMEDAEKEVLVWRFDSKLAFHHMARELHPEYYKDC

B1: wild-type human Hck SH3 domain (domain or fragment)
chain: not shown
notes: also called hHck SH3; source: E. coli BL21(DE3)pLysS, purified (anion exchange, IMAC, size-exclusion chromatography)
As to B1, the affinity, expressed as Kd, was 70 ± 10 nM; the dissociation rate constant (koff) (as a rule, the rate constant with which the complex falls apart) stood at 0.0118 ± 0.04 s⁻¹; the kon (commonly the rate constant with which the complex forms) came to 160000 ± 0.06 M⁻¹ s⁻¹.

B2: wild-type mouse Hck SH3 domain (domain or fragment, UniProt P08103 76-136, looked up)
chain: SEDTIVVALYDYEAIHREDLSFQKGDQMVVLEEAGEWWKARSLATKKEGYIPSNYVARVNS
notes: also called mHck SH3; mSH3; source: E. coli BL21(DE3)pLysS, purified (anion exchange, IMAC, size-exclusion chromatography)
As for B2, the Kd – broadly, the equilibrium constant for the complex coming apart – was 130 ± 30 nM; the koff was 0.07 ± 0.36 s⁻¹; the on-rate (kon) came to 554000 ± 1.77 M⁻¹ s⁻¹.
